Source: publication PMC12494564, “CLIC5A binds to and stabilizes the open and active conformation of ezrin” (The Journal of Biological Chemistry, 2025)

Biological target: GST-His6x-CLIC5A (human, UniProt Q9NZA1-2 1-251, fluorescent label from the Monolith His-Tag Labeling Kit RED-tris-nitriloacetic acid)
Assay: MST; 100 nM fluorescently labeled (RED-tris-NTA) GST-His6x-CLIC5A or GST-His6x, unlabeled ezrin_(482-586) from 412 μM to 12.6 nM in the labeling buffer; Monolith NT.115, ambient temperature, 40% MST power, 30% LED power
Conditions: both partners purified

Sequence of GST-His6x-CLIC5A (Q9NZA1 other isoform, or with tags, fused parts or gaps): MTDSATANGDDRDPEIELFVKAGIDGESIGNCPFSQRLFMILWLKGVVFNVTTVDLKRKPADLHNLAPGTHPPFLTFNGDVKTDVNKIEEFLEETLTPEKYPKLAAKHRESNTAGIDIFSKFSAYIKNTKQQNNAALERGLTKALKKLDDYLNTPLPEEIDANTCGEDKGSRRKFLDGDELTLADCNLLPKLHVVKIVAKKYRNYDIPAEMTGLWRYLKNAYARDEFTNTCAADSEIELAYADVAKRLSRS

B1: ezrin_(482-586) (H549N/T567E) (domain or fragment, human, UniProt P15311 482-586, looked up)
chain: SYHVQESLQDEGAEPTGYSAELSSEGIRDDRNEEKRITEAEKNERVQRQLLTLSSELSQARDENKRTNNDIIHNENMRQGRDKYKELRQIRQGNTKQRIDEFEAL
notes: ezrin, human; Expression plasmid created by ATUM; not shown: PagP, N-terminal, cleaved
Q: B1 was tested. Which Kd did it give?
A: 29 µM
